Test results published in publication PMC2762042.

Target: hnRNP G-T RRM (Homo sapiens) (UniProt O75526)
Experiment: EMSA
Conditions: EMSA with radio-labelled T7 transcripts and 30 or 100 ng RRM protein; buffer, salt, pH and temperature not given in material

Chain of hnRNP G-T RRM (Homo sapiens) (O75526 8-86): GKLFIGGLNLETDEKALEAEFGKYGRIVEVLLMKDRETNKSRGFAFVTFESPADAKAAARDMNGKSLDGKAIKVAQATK

Q: Which Kd does the source give for “AGGUAUUGGGCUUUGGCUGAGGGCUUUUUGUUGUUGUUGUUGUUGUU [ABwt]” here?
A: 1.7 nM
